Values of other authors in article PMC9836287.

Target: CEP250 (Homo sapiens) (UniProt Q9BV73)
UniProt Q9BV73, sequence (Q9BV73 whole entry): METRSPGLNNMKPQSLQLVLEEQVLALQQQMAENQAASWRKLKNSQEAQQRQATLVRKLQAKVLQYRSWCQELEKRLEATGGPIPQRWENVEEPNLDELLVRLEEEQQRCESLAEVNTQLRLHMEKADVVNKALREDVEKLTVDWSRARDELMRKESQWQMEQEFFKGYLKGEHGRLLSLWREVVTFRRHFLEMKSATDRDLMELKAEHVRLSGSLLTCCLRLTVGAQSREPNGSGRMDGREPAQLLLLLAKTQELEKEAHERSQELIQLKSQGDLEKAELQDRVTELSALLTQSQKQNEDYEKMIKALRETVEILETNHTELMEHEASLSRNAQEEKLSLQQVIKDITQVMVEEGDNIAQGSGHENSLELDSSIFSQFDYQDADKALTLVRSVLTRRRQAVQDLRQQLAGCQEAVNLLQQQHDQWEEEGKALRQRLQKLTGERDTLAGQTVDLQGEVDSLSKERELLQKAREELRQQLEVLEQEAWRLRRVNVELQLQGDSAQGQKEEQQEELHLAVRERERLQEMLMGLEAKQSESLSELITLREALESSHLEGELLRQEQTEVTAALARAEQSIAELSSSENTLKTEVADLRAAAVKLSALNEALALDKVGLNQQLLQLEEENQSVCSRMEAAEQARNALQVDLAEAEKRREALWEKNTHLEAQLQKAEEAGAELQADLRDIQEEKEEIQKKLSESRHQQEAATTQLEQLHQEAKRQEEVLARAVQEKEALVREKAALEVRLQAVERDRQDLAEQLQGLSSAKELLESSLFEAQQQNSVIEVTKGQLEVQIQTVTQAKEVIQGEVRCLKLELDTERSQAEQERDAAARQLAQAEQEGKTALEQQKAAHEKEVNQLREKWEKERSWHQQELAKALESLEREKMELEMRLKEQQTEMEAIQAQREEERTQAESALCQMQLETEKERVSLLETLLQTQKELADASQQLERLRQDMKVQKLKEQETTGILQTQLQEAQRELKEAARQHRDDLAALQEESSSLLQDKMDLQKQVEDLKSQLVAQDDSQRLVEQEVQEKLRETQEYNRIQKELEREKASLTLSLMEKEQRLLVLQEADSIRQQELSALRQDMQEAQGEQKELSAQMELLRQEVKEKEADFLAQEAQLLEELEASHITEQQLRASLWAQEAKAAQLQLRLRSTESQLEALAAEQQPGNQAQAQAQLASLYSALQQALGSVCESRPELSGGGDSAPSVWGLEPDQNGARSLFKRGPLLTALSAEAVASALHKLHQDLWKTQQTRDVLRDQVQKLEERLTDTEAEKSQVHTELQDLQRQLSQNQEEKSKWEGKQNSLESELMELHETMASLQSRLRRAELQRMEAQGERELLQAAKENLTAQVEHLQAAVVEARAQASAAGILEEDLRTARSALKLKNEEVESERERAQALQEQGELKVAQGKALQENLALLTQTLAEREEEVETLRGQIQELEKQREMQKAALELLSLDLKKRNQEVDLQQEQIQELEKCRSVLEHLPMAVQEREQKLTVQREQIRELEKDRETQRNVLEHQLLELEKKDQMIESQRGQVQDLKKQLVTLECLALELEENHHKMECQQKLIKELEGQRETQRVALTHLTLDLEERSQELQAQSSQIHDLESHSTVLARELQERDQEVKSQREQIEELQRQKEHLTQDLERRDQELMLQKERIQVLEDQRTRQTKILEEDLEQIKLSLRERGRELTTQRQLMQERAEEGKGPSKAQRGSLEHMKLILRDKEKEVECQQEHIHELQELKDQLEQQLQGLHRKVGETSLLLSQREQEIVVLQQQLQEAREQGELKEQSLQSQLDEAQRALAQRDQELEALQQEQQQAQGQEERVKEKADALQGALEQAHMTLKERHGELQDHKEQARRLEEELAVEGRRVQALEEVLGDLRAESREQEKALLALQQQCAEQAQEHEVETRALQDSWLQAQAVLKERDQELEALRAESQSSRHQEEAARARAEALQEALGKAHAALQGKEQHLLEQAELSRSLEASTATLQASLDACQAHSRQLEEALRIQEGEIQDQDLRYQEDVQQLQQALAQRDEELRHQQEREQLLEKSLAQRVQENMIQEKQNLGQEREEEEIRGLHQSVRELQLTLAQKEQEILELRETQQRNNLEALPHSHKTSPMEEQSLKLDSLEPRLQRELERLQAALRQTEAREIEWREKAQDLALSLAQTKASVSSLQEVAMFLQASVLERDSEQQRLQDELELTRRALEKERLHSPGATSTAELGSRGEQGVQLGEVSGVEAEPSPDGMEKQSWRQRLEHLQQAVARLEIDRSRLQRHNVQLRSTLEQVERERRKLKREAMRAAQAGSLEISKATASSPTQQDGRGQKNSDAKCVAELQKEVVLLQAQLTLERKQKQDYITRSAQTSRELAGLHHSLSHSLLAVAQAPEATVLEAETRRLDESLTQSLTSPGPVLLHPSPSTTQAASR

- Kd: 40 nM
Substance: FKBP12 (from UniProt P62942)
